Target: pyrene-labeled tropomyosin from bovine cardiac tissue (bovine) (UniProt Q5KR49)
Assay: other fluorescence titration; troponin complex binding to 100 nM pyrene-tropomyosin, 23 °C, 20 mM Hepes pH 7.5, 100 mM KCl, 2 mM MgCl2, 1 mM DTT

human adult cardiac troponin complex with R205Q troponin T (from UniProt P45379-6 1-288; P19429 1-210; P02585 1-160)
Kd: 48 nM

human adult cardiac troponin complex, wild type (troponin T, troponin I, troponin C) (from UniProt P45379-6 1-288; P19429 1-210; P02585 1-160)
Kd: 68 nM
